B1: AGC0700 (anti-CD33 monoclonal antibody, generated from the HuM195 template) (antibody, V domains shown)
VH: QVQLVQSGAEVKKPGSSVKVSCKASGYTFTDYNMHWVRQAPGQGLEWIGYIYPYNGGTGYNQKFKSKATITADESTNTAYMELSSLRSEDTAVYYCARGRPAMDYWGQGTLVTVSS
VL: DIQMTQSPSSLSASVGDRVTITCRASESVDNYGISFMNWFQQKPGKAPKLLIYAASNQGSGVPSRFSGSGSGTDFTLTISSLQPDDFATYYCQQSKEVPWTFGQGTKVEIKR
B2: AGC1115 (AGC1100 conjugated to the water soluble chelator AGC0015) (antibody, INN chains, looked up, V domains shown)
VH: QVQLVQSGAEVKKPGSSVKVSCKASGYTFTSYWLHWVRQAPGQGLEWIGYINPRNDYTEYNQNFKDKATITADESTNTAYMELSSLRSEDTAFYFCARRDITTFYWGQGTTVTVSS
VL: DIQLTQSPSSLSASVGDRVTMSCKSSQSVLYSANHKNYLAWYQQKPGKAPKLLIYWASTRESGVPSRFSGSGSGTDFTFTISSLQPEDIATYYCHQYLSSWTFGGGTKLEIK
modifications: conjugated to chelator AGC0015

Assays:
[1] = target: CD22 on CD22-positive Raji or Ramos cells (human) (UniProt P20273); assay: flow cytometry on CD22-positive Raji cells
[2] = target: CD33 on CD33-positive HL-60 cells (human, UniProt P20138); assay: flow cytometry on HL-60 cells, 50:50 mixture; competitor: mouse anti-human CD33 reference mAb
Procedure: Binding to CD33-positive HL-60 cells were studied by flow cytometry. The determination of EC₅₀ based on the plotted curve gives an approximate value for the affinity.
The mAb or conjugate to be analyzed was prepared fresh form frozen stock by shifting the storage buffer to PBS, kept at 4° C., and used within a few days after preparation. […] The secondary antibody reagent was prepared at 0.015 mg/mL in PBS, supplemented with 0.1% BSA. The mAb stock was diluted in 10-fold dilution steps, starting from 5 mg/mL. An isotype control mAb (trastuzumab) was prepared accordingly. 20 uL from each dilution step of the anti-human CD33 mAb was added to wells containing HL-60 cells. After incubation for 1 h at 4° C. the cells were spun down and washed three times with 200 μl cold PBS, supplemented with 0.1% BSA. A solution containing 4% goat serum was added as a blocking agent, and incubated for 15 minutes. 20 μl from the secondary antibody reagent was subsequently added to each well, before incubation for 30 min at 4° C. in the dark.
The cells were washed twice, as described above, and re-suspended in 200 μL PBS, supplemented with 0.1% BSA. All samples were analysed in 96-well round or conical bottom plates. Fluorescent signals were recorded on a Beckham Coulter Cell lab Quant SC flow cytometer (Beckman Coulter; CA, USA). […]

EC50 [1] [nM] | fold less antibody bound [2] [fold] | Molecule
9 | – | AGC1100 (anti-CD22 monoclonal antibody hLL2, also called epratuzumab)
– | ~0.7 | B1
6 | – | B2
